From paper PMC3795040 come the findings set out here.

As usually defined, the Kd is the equilibrium constant for the complex coming apart. The stoichiometry N is a count of units in the complex or per binding partner.

Assay [1] deals with mini-HA complex (HA70^D3–HA17–HA33) (Clostridium botulinum strain 62A (BoNT/A1-producing)) (UniProt Q45871). As to the kind of experiment: […], pH 7.6 with 100 mM NaCl; […].
Assay [2] addresses HA70 of BoNT/A (full-length, residues M1–N626) (Clostridium botulinum strain 62A (BoNT/A1-producing)). Kind of assay: AUC.
The target of assay [3] is HA complex (HA70–HA17–HA33), recombinant, reconstituted in vitro (Clostridium botulinum strain 62A (BoNT/A1-producing)) (UniProt Q45871). Kind of assay: […], pH 7.6 with 100 mM NaCl; […].
Assay [4] deals with HA33 (full-length, residues M1–P293), expressed alone (Clostridium botulinum strain 62A (BoNT/A1-producing)) (UniProt P0DPR0). As to the kind of experiment: AUC.

For the substance “mini-HA complex (HA70^D3–HA17–HA33) (from UniProt Q45871 1-293)”, in assay [1], the dissociation constant Kd turned out to be 23.1 µM.

“HA70 of BoNT/A (full-length, residues M1–N626) (natural protein)” gave a stoichiometry N (HA70 chains in the oligomer) in assay [2] of 3. For the substance “HA complex (HA70–HA17–HA33), recombinant, reconstituted in vitro (from UniProt Q45871 1-293)”, in assay [3], the Kd was found to be 10.9 µM. In the case of “HA33 (full-length, residues M1–P293), expressed alone (from UniProt P0DPR0 1-286) (natural protein)”, the stoichiometry N in assay [4] is 2.
